In KR20180112916A (dated 2018):

Target: T1, B-세포 에피토프 펩타이드 Myc362 (human)
T1 construct: Synthetic peptide of over 90% purity, coated on the ELISA plate at 5 ug/ml; also called Myc362 펩타이드
Assay: ELISA; Myc362 peptide coated at 5 ug/ml, antibody in serial dilution, HRP anti-IgG detection

T1 sequence (peptide, as listed by the source): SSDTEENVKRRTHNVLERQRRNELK

Kd: ~37 nM
B1: 2E2F12 단클론 항체 (anti-Myc362 펩타이드-특이적인 단클론 항체) (antibody, V domains shown)
VH: EVQLQESGTELVKPGASVKLSCKASGYTFTSYWMHWVKLRPGQGFEWIGEINPSSGGTNYNENFKRKATLTVDRSSSTAYMQLSSLTSEDSAVYYCTIHRSYWGQGTTLTVSS
VL: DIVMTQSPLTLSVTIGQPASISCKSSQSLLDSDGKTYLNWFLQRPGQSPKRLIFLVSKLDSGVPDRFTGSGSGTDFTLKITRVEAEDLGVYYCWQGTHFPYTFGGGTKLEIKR
notes: also called 2E2F12 클론; anti-c-Myc 단클론 항체
